Measured values published in the DeepSol protein solubility set.

Assay: soluble on expression in E. coli; label from the status in PepcDB or PDB records

Soluble on expression in E. coli, not soluble:
MGSDKIHHHHHHMSAFSVEKIGLQDSQQFSKLFIDYLAQQEHIQPLYTFYPDMAGLETAIEKRSKQPINRTVLVERLKAQYKDLPVSEKVQQNIERLASEHTFTITTGHQLCLGTGPLYLILKTLSCVKLCEALKTKHADNEFVPVFWMASEDHDAAEINHFYVFGKKYTWETTQTGAVGRFTTTGISEVLETIKDIPAWLKDAYQSSVTLAEATRKVMHQLFAEYGVVVIDGDDAALKKEFTAVIEKELFEQPAVAVMNQTNRSIERHGYSIQVNPRDINLFYVKDSLRERIEKQGERFVVLHTDVSFSAGEIKKEVADHPERFSPNVVLRPLYESTILPDIAYVGGPGEIAYWLQLKEVFAVYNTFLPAIFPRMFSGVITKQQCVKLEKAHVTVAELFLSEFDLKQVVVSRSIQEEISIEAEAGKITAAFDTIASIAATVDGSLQSWAQAEKAKALKQLEDIEKKLRKAEERKHDDVIKSVLGIRDKILPNGKLQERQESVFTFLVNDAQLIEKLYQSLDPCTFNIQMCCYE
MGSDKIHHHHHHMSAFYDLYETPDPNDTGEKQPLHARIVPSGTYSKKDFIERVSRHQPFPHNIIEGVLGAVVDELAEALADGYIVELGELGHFSISLKCTHKVMTKKEIRAESIRFDNVHLRTSKEFKKKIKREIELERVENSNEKTHNAKISIEDRLQMLQEFLKKNGGITRIEYSRLTGLPRLKAIDDLNTFIKEGTLRKRGAGRTVFYVWKQKE
MGSDKIHHHHHHMSAQVQDLTPIKGVTYYYPPHDAVLVFKDGAAEIPYGGLPVPLLEEDYASLDGEPSYDAVGRGVYQTLRTNPDCIHCAAYATLLRDAYPHYLAELASHAIMLDSKDVEVPYIDRKIVSLKVLSLLEPDNAGLPLEIGRAYLDRGLRLSALHMSTVSIYRAEHFLRRALELTPEDGRALRLLGEVCYLLGKYEEAASCWLDTLDLADADEAERFRVRLARISEGRLPLIAPVDYLEAIGAAFTCFHTGDYEEAVAILQDVLMDGIFCAEFPIADIHCVIGKSFVQLDMPRYAEESFRAALQLDPAHEESLACLRKVTGEE
MGSDKIHHHHHHMSDIVIKAENLGKKYIIGHQAENGRYQALRDVLMHNAQTLWNKTKDLAKGNPLIHGDTLEEVWALKDVSFEIRRGEAVGIIGRNGAGKSTLLKILSRITDPSAGRVTIDGRVASLLEVGTGFHPELSGRENIYLNGTILGMSRKEINQKFDEIVDFAGIEKYLDTPVKRYSSGMYVRLAFAVAAHLEPEILVVDEVLAVGDAEFQKKCLGKMGDVTKEGRTVLFVSHNMVALSALCFRSINLDSGKIIYNGHVDTGVLIYMNGLSNIDNPISYKTRSATGTGEMKIINSFLLRNGKPTLSNVACGDKVDICIEFECCTEKPRFHFALDIYNSKGNRIAYCNSLYTMGVSWVQLPKIFLAKCSFPKLPFFPDEYRVDISIHCNDERADYLQGALSLKVYEGDFYGSGKIPPISGASPIMLLEHKWTIDN
MGSDKIHHHHHHMSDKTNLSHNVVNKEEFAGDPKPHPAAYTLVREDKGLGSTPKLPLETSYVKGLLKHDKFFQKALSNPIVAREFFEEYLPTEIKALFSPTTLTLENDSFIDPNLKESITDVLYSARINNRDCYIYILCEHQSSSDPHMAFRLFKYMLNIAEKHLISHPDSKKFPFIYPLVYSNDHKKYTAPLNLWDLFENSELVKDTWSNNYQLISLRDISDDKLKENPWLAPLQILMKYIHKPNVFDKWQEISGCLATIAASSSGIEYIKSALSYSLTKI
MGSDKIHHHHHHMSDLINIQKKLLPDVLMIMQKRYQILRSIYFSEPVGRRTLAGMLGMSERVLRGEVEFLKAQGLVEIASSGMTVTKEGLVVFRDLESVMNQLSGLHSMEEQLAKKLQIKKCLVVQGDSDDTPWVREEMGRVAVEQLDMALTEKRNIVAVMGGSTMATVAEMMTTDFAKGRELLFVPGRGGIGEDLDNQANTICDKMATKTNTKHRVLYVPEQLGEEAYRSLLKEPAIQEGLRLVQSANAIILGIGDALAMAKRRHTGEDVLEKIIHRKAVGEAFGYYFDEQGEVVHKVPTFGLQFEDLAQIPHIIAVAGGTSKAKAIKSYMKSAPKNTILITDEGAAKSLLKGSNTLLK
MGSDKIHHHHHHMSDNDLQRRILDAVDAGFDAQLATTRDFVAIPSTRGAEGPCQDMIGDLLRQRGYEVDDWHIDLDDLKDLRGYGPIEHDFSKARTVVGTYRPSTNAGRSLILQGHCDVVPAGPLEMWDTPPFSPVIKQGRMYGRGACDMKSGTIGALYALDAIKAAGLRPTGRIHFQSVIEEESTGVGALSTLQRGYRADACFIPEPTGGKMVRSQVGVIWFRLKVRGYPVHVATAGTGSNAITAAYHLIDALGKLEEEWNRRAASDPHFKTLAHPINFNPGIIKGGDWASSVPAWCDVDCRIAILPGWSVADHQAEILACVSAAARDHRFLSNNPPQVEWSGFLSEGYELKNAAEPEAAFGKAYQAVYGSEVEDLVFTALTDTRFYGLNYNIPSLCFGASGEAMHGFNEYIDLESLRQSTKATALFIAEWCGVEPA
MGSDKIHHHHHHMSDNEIVAGIMRDHIINLLKEGKRIDDRGFEDYRPIEIEVGIIEKAEGSALVKLGSTQVLVGIKTTLGEPFPDTPNMGVMTTNVELVPLASPTFEPGPPDERAIELARVTDRGIRESRALNLEKMVIVPGKIVRVVFIDVHVLDHDGNLMDAIGIASIAALLNAKVPKVEYNEETGEVEILEEKEPLPVERIPIPVTFAKIGNILVVDPSLEEELVMDGRLTVTTDETGHISAVQKGEGGAFKLEEVMYAVETAFKKAEEIRKIVLEAIKKSGE
MGSDKIHHHHHHMSDTLLEIDNLTVDFQLPTGTVSAVKHVSFSLQPGETLALVGESGSGKSVSSTAAMRLLPELARTSGAIRFKGEDLLRATPRRMRHIRGNAISMIFQEPMTSLNPLHRIGRQIAEVLEKHRGLKGRQARTKIVELLEQVGIPDPARRIDSYPHELSGGQRQRVMIAMALACEPELLIADEPTTALDVTVQAQILALLKDLQARYGMAILFITHDLGIVRHFADRVCVMRRGELIESGPTAELFDTPRDDYTRMLIDADPRGRKTPVDPSMPVLFEAKDLQVRFTLKKRLFRASEHFEAVRGIDLTIRRGQTVGIVGESGSGKSTLGRALLRLLDSRGEIRFDGQDIAALDTAGMRPLRSRLQVVFQDPFGSLSPRMTVGEVISEGLRVHHPTLDRRQREARVIEALEDVALDPAMRNRYPHEFSGGQRQRIAIARALVLKPEFLLLDEPTSALDRSVQVTVIDLLRDLQQKHGLTYLFISHDLSVVRALADTVLVMKAGQVVEQGATEEIFANPREHYTRELMRAAFVDAA
MGSDKIHHHHHHMSEFYGAQHRQWQEHFDGVAMADRVRELIVLPSIPEEHAGFIGSRDFFFLSTIDHRGFPTCSYKGGQPGFVKILDDTTLAFPSLDGNSMYLSMGNLSLNPKIGMLFIDFETPHRIRVHGTASVKPDDTLLAEYQEAELIVRIKIEEIFVNCPRYIHKHQRVQHSPYVPQAGCTTRTPQWKRLDSVQDVLRQPDLEKVSRMGGPITIEEYMELVLQGDA
MGSDKIHHHHHHMSEKKILILCQYFYPEYVSSATLPTQLAEDLIANHINVDVMCGWPYEYSNHKQVSKTEMHRGIRIRRLKYSRFNNKSKVGRIINFFSLFSKFVINIPKMLKYDQILVYSNPPILPLIPDVLHRLLKKKYSFVVYDIAPDNAIKTGATRPGSMIDKLMRYINRHVYKNAENVIVLGTEMKNYLLNHQISKNADNIHVIPNWYDMRQLQDNRIYNDTFKAYREQYDKILLYSGNMGQLQDMETLISFLKLNKDQPQTLTILCGHGKKFADVKTAIEDHRIENVKMFEFLTGTDYADVLKIADVCIASLIKEGVGLGVPSKNYGYLAAKKPLVLIMDKQSDIVQHVEQYDAGIQIDNGDAHAIYNFINTHSSKELHEMGERAHQLFKDKYTREINTMKYYNLLK
MGSDKIHHHHHHMSEKKKVLMLHGFVQSDKIFSAKTGGLRKNLKKLGYDLYYPCAPHSIDKKALFQSESEKGRDAAKEFNTSATSDEVYGWFFRNPESFNSFQIDQKVFNYLRNYVLENGPFDGVIGFSQGAGLGGYLVTDFNRILNLTDEQQPALKFFISFSGFKLEDQSYQKEYHRIIQVPSLHVRGELDEVVAESRIMALYESWPDNKRTLLVHPGAHFVPNSKPFVSQVCNWIQGITSKEGQEHNAQPEVDRKQFDKPQLEDDLLDMIDSLGKL
MGSDKIHHHHHHMSELIEVTHLTFTYTGQAAPALKDVSLTIHAGEFITLVGATGSGKTTLLKQLKHELWPAGERTGSLTFQDTAIQALSPVESAQQIGYVAQDPQVQPIMATVMEELAFPLENLGYPTATINDRIAEIANYLDLNHLLQRAIETLSGGQLQLVNLASVLALKPQVILLDESTAQLDPTTAQKFLNILQQVHDELDLTIVLTEHRLSRVMALTDRVALLANGQVLTVAEPTPALQQMAATPALQAFVPPVPHFFLDHNLVVTPLPLSVTMGRRALRQSSWRFQAVTTRQPAQSGPRESVLVATGVSFHYPTTGDILHQVELQVATGDWLAIIGKNGSGKSTLLTVLAGLQKPQHGKVRLNQQVIWRMKNQDRVLQVGYLSQNPTEQFNGDSVREELTAQAQLRGTSVAQRVDQMLIRCHLTAVADQNSFDLSGGQQQLLGLGLALMTEPQVLLLDEPTKGLDPDTKLRIGQLLQQAHETGLTIIMASHDMDFSAQFADTCTFMFNGRVNPPQATRLFFTQNFLATTAVNRLLRQQVPQALFSQDVVRTDKGGE
MGSDKIHHHHHHMSELLGLIVDARPLQAHFRIPHTSLLLDTYPFPPKTTAVGMLAGCMGLGEEGFKKLLEKIKYGVIIEDPGEKIEEVSVIYKNPYSPSYPITRVSLYKPRFRMFFAGEERVIEEAYEGLLDPKFVPYMGDSESLFYPGKKRYVEVVDVQEGKEDILRSVIPEVKFKEFVPLRRKVLVPKVYEAPVKFTYKGKSRRAVYGRFIAFSGGYVKLEKKIDVLLFDGEPIATF
MGSDKIHHHHHHMSEQMFEGWNGAIVVTPETVKIIYGNQHSKGEGEKEITLESIQSIELKKPRFLAQGYIQLILEGSKKKKGALAAMGDEHSIMINDEAQYKQFEQAKELIELFQHEQKLVSEQNEKGEGWREDVFKGGNGTLVVTPETIKIIYSWLHTRGRGEKTINIRSISSIQLKEPAVVAGYIQFTFQGSIENQSRSSFSAIDDQNTIAISNKHQFEDFKRAKALIESYQNQLYAPQIQSSSTSGADELKKYKELLDDGIISEEEFNAKKKQILGI
MGSDKIHHHHHHMSEVHTTIIDLDAGAVFSGTPSGRIIKGFDKPCAHTPNIDPDYVFHECSRDIVVWLMDSSDPLYVFGPTGSGKTSAIKQLAARLNYPVFDVTGHGRLEFPDLVGHLSVRDGSMEFQYGPLALAMRHGGILLLNEIDLLEPATATGFNGILDGEPLCIPENGGEIITPHPMFRFAATANTNGGSDDTGLYQGTLRQNLAFLDRFWLCEMPYPAPEAEKALLERRAPMLPDDIRTRMVDYANEVRRLFMGESGTTYGHSIEVTFSTRTLLRWADLTVRFQPLARQGIQPLTYALDRALGFKASKDTRTTLHELAQRLFPQHAATGE
MGSDKIHHHHHHMSFVSYAQNFEDVMLWRALRHIKNGYYIDVGAFSADEDSVTRAFYDQGWSGINIEPNPKYHEELVARRDRDINLRVAVSDRAEDRALYVIDDTGLTTLEPDIAEMHREKGFSKIDVVVPALTLEEIWTTHVPQDQDVHFLKIDVEGHELPVIKGLDWDRHRPWIVVVESTLPATQQLSETGIVEALAKADYEAVYWDGLNRYYVAKERAELTKYFDDPPNVFDGFRRSSEVEFEQRALQAEAELYLEREHVVRISKENWDHVHHALEVKFSALQEAMAAEAQAARRDVTQELVELRMQLSKQGMTSSFWTRFFFRPTGKPKKALRRLLFHTNGKPRGIFRNRVLKSNGQPRPAFLRWMASAEYQQLRRAVKVAASDESQHVLESGASTLSQNEGVFVGVLQSARTEKSH
